Measured values published in US20250361322A1.

Experiments:
[1] = target: h1-107_r (human/rat chimera); assay: live cell staining, flow cytometry, transfected HEK293
[2] = target: r141-194_h (rat/human chimera) (UniProt P42533); assay: as above
hTF_K149N (human) = hTF_K149N (human) (UniProt P13726); assay: as above
[3] = target: h108-219_r (human/rat chimera); assay: live cell staining (HEK293, flow cytometry)
[4] = target: h1-107_r (human/rat chimera); assay: live cell staining (HEK293, flow cytometry)
[5] = target: h167-174_r (human/rat chimera) (UniProt P13726); assay: live cell staining (HEK293, flow cytometry)
[6] = target: h159-219_r (human/rat chimera); assay: live cell staining (HEK293, flow cytometry)
[7] = target: h159-174_r (human/rat chimera) (UniProt P13726); assay: live cell staining (HEK293, flow cytometry)
[8] = target: h159-189_r (human/rat chimera) (UniProt P13726); assay: live cell staining (HEK293, flow cytometry)
[9] = target: r141-194_h (rat/human chimera) (UniProt P42533); assay: live cell staining (HEK293, flow cytometry)
[10] = target: human Tissue Factor (TF) (human) (UniProt P13726); assay: cell-based or functional assay
[11] = target: full-length mouse TF with a C-terminal FLAG tag on Flp-In-CHO cells (mouse) (UniProt P20352); assay: flow cytometry on CHO cells expressing mouse TF, MFI at 250 nM antibody

h1-107_r (human/rat chimera), sequence (chain, as listed by the source mutant limits assumed): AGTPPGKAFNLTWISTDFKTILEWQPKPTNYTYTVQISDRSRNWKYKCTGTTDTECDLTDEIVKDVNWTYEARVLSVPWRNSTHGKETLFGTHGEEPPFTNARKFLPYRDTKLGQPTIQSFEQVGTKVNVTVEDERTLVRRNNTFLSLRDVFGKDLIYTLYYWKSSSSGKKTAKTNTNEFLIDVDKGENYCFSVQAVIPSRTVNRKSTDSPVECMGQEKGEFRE
h108-219_r (human/rat chimera), sequence (chain, as listed by the source mutant limits assumed): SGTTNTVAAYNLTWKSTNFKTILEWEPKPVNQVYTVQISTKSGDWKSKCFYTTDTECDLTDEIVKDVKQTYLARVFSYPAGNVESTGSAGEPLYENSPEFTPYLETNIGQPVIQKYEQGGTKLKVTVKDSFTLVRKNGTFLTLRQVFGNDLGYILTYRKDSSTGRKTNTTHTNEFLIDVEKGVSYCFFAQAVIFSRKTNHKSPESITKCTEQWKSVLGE

In the case of “5G9 (humanized TF8-5G9, CNTO 860) (antibody)”, the percent antibody binding to TF construct relative to hTF [1] is reported as 41%, the percent antibody binding to TF construct relative to hTF [2] is reported as 32% and the percent antibody binding to TF construct relative to hTF (hTF_K149N (human)) is reported as 145%. The Percentage antibody binding to TF construct relative to hTF [3] was under 50%, the Percentage antibody binding to TF construct relative to hTF [4] was under 50% and the Percentage antibody binding to TF construct relative to hTF [5] was under 50%. The Percentage antibody binding to TF construct relative to hTF [6] was under 50%, the Percentage antibody binding to TF construct relative to hTF [7] was under 50% and the Percentage antibody binding to TF construct relative to hTF [8] was under 50%. For the same substance, the Percentage antibody binding to TF construct relative to hTF [9] was under 50%.

For Control, the % GM-CSF at 2.56 nM [10] was 88%, the % GM-CSF at 6.4 nM [10] was 86% and the % GM-CSF at 100 nM [10] was 105%. For the same substance, the % IL8 at 2.56 nM [10] was 90%, the % IL8 at 6.4 nM [10] was 88% and the % IL8 at 16 nM [10] was 84%.

IgG1 isotype control (antibody) gave an MFI at 250 nM [11] of 7400.
